Source: publication PMC7922139, “Characterization of a Yellow Laccase from Botrytis cinerea 241” (Journal of Fungi, 2021)

Legend:
[1] = tested on: CN(C)CCCN1c2ccccc2Sc2ccccc21; assay: purified protein; settings: 50 mM sodium acetate pH 5.5, 25 °C
Oc1ccccc1O = assay: purified protein; settings: 50 mM sodium acetate pH 5.5, 25 °C
OCCN1c2ccccc2Oc2ccccc21 = assay: purified protein; settings: 50 mM sodium acetate pH 5.5, 25 °C
[2] = tested on: O=C(O)CCN1c2ccccc2Oc2ccccc21; assay: purified protein; settings: 50 mM sodium acetate pH 5.5, 25 °C
[3] = tested on: CCn1c(=NN=c2sc3cc(S(=O)(=O)O)ccc3n2CC)sc2cc(S(=O)(=O)O)ccc21; assay: purified protein; settings: 50 mM sodium acetate pH 5.5, 25 °C
[4] = tested on: O=c1c(O)c(-c2ccc(O)cc2)oc2cc(O)cc(O)c12; assay: purified protein; settings: 50 mM sodium acetate pH 5.5, 25 °C
[5] = tested on: O=c1c(O)c(-c2ccc(O)c(O)c2)oc2cc(O)cc(O)c12; assay: purified protein; settings: 50 mM sodium acetate pH 5.5, 25 °C
[6] = tested on: O=c1c(O)c(-c2ccc(O)c(O)c2)oc2cc(O)ccc12; assay: purified protein; settings: 50 mM sodium acetate pH 5.5, 25 °C
[7] = tested on: COc1cc(/C=C/C(=O)O)cc(OC)c1O; assay: purified protein; settings: 50 mM sodium acetate pH 5.5, 25 °C
Nc1ccc(N)cc1 = assay: purified protein; settings: 50 mM sodium acetate pH 5.5, 25 °C
[8] = tested on: COc1cc(C=NN=Cc2cc(OC)c(O)c(OC)c2)cc(OC)c1O; assay: purified protein; settings: 50 mM sodium acetate pH 5.5, 25 °C
[9] = tested on: O=C(O)/C=C/c1ccc(O)c(O)c1; assay: purified protein; settings: 50 mM sodium acetate pH 5.5, 25 °C
Oc1ccc(O)cc1 = assay: purified protein; settings: 50 mM sodium acetate pH 5.5, 25 °C
O=C(O)c1cc(O)c(O)c(O)c1 = assay: purified protein; settings: 50 mM sodium acetate pH 5.5, 25 °C
COc1cc(C(=O)O)cc(OC)c1O = assay: purified protein; settings: 50 mM sodium acetate pH 5.5, 25 °C
[10] = molecular target: yellow laccase Bcl1 from Botrytis cinerea strain 241 (Botrytis cinerea strain 241); assay: SEC; Superdex 200 5/150 GL analytical column, 50 mM Tris-HCl, 150 mM NaCl, pH 8; mass read against standards (apoferritin, beta-amylase, alcohol dehydrogenase, albumin) and compared with the mass by SDS-PAGE

## Bcl1 laccase (Botrytis cinerea)
[1]
  Km: 60.0 ± 10 µM
  kcat: 7.1 ± 0.3 s⁻¹
Oc1ccccc1O
  Km: 70.0 ± 4 µM
  kcat: 28 ± 1 s⁻¹
  kcat/Km: 400000 ± 20000 M⁻¹ s⁻¹
OCCN1c2ccccc2Oc2ccccc21
  Km: 40.0 ± 7 µM
  kcat: 25 ± 2 s⁻¹
  kcat/Km: 630000 ± 30000 M⁻¹ s⁻¹
[2]
  Km: 6.0 ± 0.8 µM
  kcat: 33 ± 1 s⁻¹
  kcat/Km: 5.5e+06 ± 800000 M⁻¹ s⁻¹
[3]
  Km: 13.8 ± 0.2 µM
  kcat: 29 ± 1 s⁻¹
  kcat/Km: 2.1e+06 ± 100000 M⁻¹ s⁻¹
[4]
  Km: 8.6 ± 0.1 µM
  kcat/Km: 2e+06 ± 400000 M⁻¹ s⁻¹
[5]
  Km: 3.7 ± 0.8 µM
  kcat: 6.7 ± 0.4 s⁻¹
  kcat/Km: 1.8e+06 ± 300000 M⁻¹ s⁻¹
[6]
  Km: 1.5 ± 0.1 µM
  kcat: 7.8 ± 0.3 s⁻¹
  kcat/Km: 5.2e+06 ± 900000 M⁻¹ s⁻¹
[7]
  Km: 60.0 ± 10 µM
  kcat: 100 ± 10 s⁻¹
Nc1ccc(N)cc1
  Km: 150.0 ± 20 µM
  kcat: 15 ± 1 s⁻¹
  kcat/Km: 100000 ± 2000 M⁻¹ s⁻¹
[8]
  Km: 0.7 ± 0.1 µM
  kcat: 30 ± 2 s⁻¹
  kcat/Km: 4.3e+07 ± 7e+06 M⁻¹ s⁻¹
[9]
  Km: 15.0 ± 1 µM
  kcat: 13 ± 1 s⁻¹
  kcat/Km: 870000 ± 200000 M⁻¹ s⁻¹
Oc1ccc(O)cc1
  kcat: 21.4 ± 0.3 s⁻¹
  kcat/Km: 97000 ± 2000 M⁻¹ s⁻¹
O=C(O)c1cc(O)c(O)c(O)c1
  Km: 27.0 ± 8 µM
  kcat: 20 ± 3 s⁻¹
  kcat/Km: 740000 ± 200000 M⁻¹ s⁻¹
COc1cc(C(=O)O)cc(OC)c1O
  Km: 74.0 ± 12 µM
  kcat: 3.4 ± 0.5 s⁻¹
  kcat/Km: 46000 ± 5000 M⁻¹ s⁻¹

## yellow laccase Bcl1 from Botrytis cinerea strain 241 (enzyme)
[10]
  stoichiometry N: 2
